Data on three molecules can be found in patent US20150239981A1 (Hoffmann-La Roche, published 2015).

The target in one test is T1, FcγRI (human, UniProt P12314 16-288, limits assumed).
T1 construct: also called FcγR1; FcγRI receptor
Put plainly: SPR Biacore, FIG. 1b. Here is the method: (§1) Binding affinities of different FcγRs towards immunoglobulins were measured by Surface Plasmon Resonance (SPR) using a Biacore T100 instrument (GE Healthcare) at 25° C.
(SPR reads the build-up and loss of mass on a sensor chip optically.)

For the next test, the target named is T2, FcγRIIIA-V158 (human, UniProt P08637 17-208, limits assumed).
T2 construct: Soluble analyte in SPR, 0 to 12800 nM; construct not described; also called FcγRIIIA receptor
Put plainly: SPR Biacore, antibody immobilised, receptor as analyte, FIG. 1e. Here is the method: as §1

T1 sequence (P12314 16-288 limits assumed): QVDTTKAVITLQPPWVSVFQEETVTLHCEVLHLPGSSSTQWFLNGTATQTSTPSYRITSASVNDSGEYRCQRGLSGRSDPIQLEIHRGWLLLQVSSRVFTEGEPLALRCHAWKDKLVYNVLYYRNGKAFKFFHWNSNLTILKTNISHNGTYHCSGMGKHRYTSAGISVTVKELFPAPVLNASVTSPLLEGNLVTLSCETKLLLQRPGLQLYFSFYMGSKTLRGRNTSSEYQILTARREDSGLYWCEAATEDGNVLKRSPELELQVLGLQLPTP
T2 sequence (P08637 17-208 F176V limits assumed): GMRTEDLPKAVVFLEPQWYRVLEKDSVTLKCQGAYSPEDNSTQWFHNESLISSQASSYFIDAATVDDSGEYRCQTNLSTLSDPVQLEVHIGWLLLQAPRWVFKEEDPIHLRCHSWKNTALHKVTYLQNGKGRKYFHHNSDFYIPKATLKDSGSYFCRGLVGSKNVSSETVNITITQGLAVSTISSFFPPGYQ

B1: CD9 antibody IgG1-LALA (mAb 40A746.2.3) (antibody)
heavy: not shown
light: DIQMTQTTSSLSASLGDRVTISCSASQGISNYLNWYQQKPDGNVKLLIYYTSSLHSGVPSRFSGSGSGTDYSLTISNLEPEDIATYYCQQYSKLPYTFGGGTKLEIKRTVAAPSVFIFPPSDEQLKSGTASVVCLLNNFYPREAKVQWKVDNALQSGNSQESVTEQDSKDSTYSLSSTLTLSKADYEKHKVYACEVTHQGLSSPVTKSFNRGEC
notes: also called chim-hu-IgG1-LALA
For the molecule B1, the binding result in the test with FcγRI and with FcγRIIIA-V158 was “binds” in each case.

B2: CD9 antibody IgG4-SPLE (mAb 40A746.2.3) (antibody)
heavy: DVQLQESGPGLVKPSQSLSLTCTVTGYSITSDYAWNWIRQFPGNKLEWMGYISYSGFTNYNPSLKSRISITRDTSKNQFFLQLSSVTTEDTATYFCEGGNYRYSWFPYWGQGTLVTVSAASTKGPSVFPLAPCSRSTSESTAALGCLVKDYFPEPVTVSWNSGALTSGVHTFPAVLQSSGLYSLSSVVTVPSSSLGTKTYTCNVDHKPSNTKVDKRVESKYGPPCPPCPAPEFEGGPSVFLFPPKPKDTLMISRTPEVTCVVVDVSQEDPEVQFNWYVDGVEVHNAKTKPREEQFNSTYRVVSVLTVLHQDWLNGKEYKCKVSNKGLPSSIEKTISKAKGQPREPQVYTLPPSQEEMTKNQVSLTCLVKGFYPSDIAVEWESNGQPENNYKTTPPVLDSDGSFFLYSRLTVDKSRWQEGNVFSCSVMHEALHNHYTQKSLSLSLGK
light: B1 light
notes: also called chim-hu-IgG4-SPLE
In the case of B2, the binding result with FcγRI and with FcγRIIIA-V158 was “binds” in each case.

B3: CD9 antibody IgG1-P329G (mAb 40A746.2.3) (antibody)
heavy: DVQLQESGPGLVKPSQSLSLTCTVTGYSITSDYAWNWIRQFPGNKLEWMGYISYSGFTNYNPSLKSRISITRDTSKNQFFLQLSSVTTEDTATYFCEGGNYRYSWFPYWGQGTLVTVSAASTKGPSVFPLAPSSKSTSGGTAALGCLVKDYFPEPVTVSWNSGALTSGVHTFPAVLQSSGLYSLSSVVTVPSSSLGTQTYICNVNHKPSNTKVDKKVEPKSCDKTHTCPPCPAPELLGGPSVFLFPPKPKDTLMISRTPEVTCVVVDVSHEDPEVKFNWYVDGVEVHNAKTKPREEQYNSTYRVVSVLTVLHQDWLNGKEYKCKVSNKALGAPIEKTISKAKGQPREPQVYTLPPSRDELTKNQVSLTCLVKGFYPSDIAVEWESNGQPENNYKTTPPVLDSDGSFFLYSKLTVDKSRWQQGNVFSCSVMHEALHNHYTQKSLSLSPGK
light: B1 light
notes: also called chim-hu-IgG-WT-P329G; TA IgG1 P329G
Take B3: the binding result with FcγRI is listed as “binds”.
